Assay results from the supplement of paper PMC11316812.
± gives the standard deviation of the averaged measurements.

How the values were obtained:
MCF7 = assay: percentage of EdU-negative (G0-arrested) nuclei per well, 72 h; higher = more G0 arrest; conditions: reference: sequence is the full UniProt precursor, the tested protein was the secreted form or ectodomain
hTERT-HMEC = assay: as above; conditions: reference: sequence is the full UniProt precursor, the tested protein was the secreted form or ectodomain
[1] = protein concentration 0.0135 µM
[2] = protein concentration 0.0357143 µM
[3] = protein concentration 0.357143 µM
[4] = protein concentration 0.0197143 µM
[5] = protein concentration 0.197143 µM
[6] = protein concentration 0.0225 µM
[7] = protein concentration 0.0055 µM
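Further: secreted proteins added to cultured cells, EdU pulse at the end, nuclei found by Hoechst imaging, EdU status from nuclear versus surrounding ring intensity ratio, PBS as neutral control.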

## MLRFYLFISLLCLSRSDAEETCPSFTRLSFHSAVVGTGLNVRLMLYTRKNLTCAQTINSSAFGNLNVTKKTTFIVHGFRPTGSPPVWMDDLVKGLLSVEDMNVVVVDWNRGATTLIYTHASSKTRKVAMVLKEFIDQMLAEGASLDDIYMIGVSLGAHISGFVGEMYDGWLGRITGLDPAGPLFNGKPHQDRLDPSDAQFVDVIHSDTDALGYKEPLGNIDFYPNGGLDQPGCPKTILGGFQYFKCDHQRSVYLYLSSLRESCTITAYPCDSYQDYRNGKCVSCGTSQKESCPLLGYYADNWKDHLRGKDPPMTKAFFDTAEESPFCMYHYFVDIITWNKNVRRGDITIKLRDKAGNTTESKINHEPTTFQKYHQVSLLARFNQDLDKVAAISLMFSTGSLIGPRYKLRILRMKLRSLAHPERPQLCRYDLVLMENVETVFQPILCPELQL [Q8WWY8]
MCF7; [1]
  percentage of EdU-negative: 25.5 ± 2.4%
MCF7; protein concentration 0.135 µM
  percentage of EdU-negative: 29.4 ± 2.3%
hTERT-HMEC; [1]
  percentage of EdU-negative: 5.39 ± 1.9%
hTERT-HMEC; protein concentration 0.135 µM
  percentage of EdU-negative: 14.6 ± 3%

## MCLSHLENMPLSHSRTQGAQRSSWKLWLFCSIVMLLFLCSFSWLIFIFLQLETAKEPCMAKFGPLPSKWQMASSEPPCVNKVSDWKLEILQNGLYLIYGQVAPNANYNDVAPFEVRLYKNKDMIQTLTNKSKIQNVGGTYELHVGDTIDLIFNSEHQVLKNNTYWGIILLANPQFIS [Q9UNG2]
MCF7; [2]
  percentage of EdU-negative: 24.5 ± 2.7%
MCF7; [3]
  percentage of EdU-negative: 27 ± 1.1%
hTERT-HMEC; [2]
  percentage of EdU-negative: 5.8 ± 0.82%
hTERT-HMEC; [3]
  percentage of EdU-negative: 7.64 ± 0.14%

## MHPHRDPRGLWLLLPSLSLLLFEVARAGRAVVSCPAACLCASNILSCSKQQLPNVPHSLPSYTALLDLSHNNLSRLRAEWTPTRLTQLHSLLLSHNHLNFISSEAFSPVPNLRYLDLSSNQLRTLDEFLFSDLQVLEVLLLYNNHIMAVDRCAFDDMAQLQKLYLSQNQISRFPLELVKEGAKLPKLTLLDLSSNKLKNLPLPDLQKLPAWIKNGLYLHNNPLNCDCELYQLFSHWQYRQLSSVMDFQEDLYCMNSKKLHNVFNLSFLNCGEYKERAWEAHLGDTLIIKCDTKQQGMTKVWVTPSNERVLDEVTNGTVSVSKDGSLLFQQVQVEDGGVYTCYAMGETFNETLSVELKVHNFTLHGHHDTLNTAYTTLVGCILSVVLVLIYLYLTPCRCWCRGVEKPSSHQGDSLSSSMLSTTPNHDPMAGGDKDDGFDRRVAFLEPAGPGQGQNGKLKPGNTLPVPEATGKGQRRMSDPESVSSVFSDTPIVV [Q86WK6]
MCF7; [4]
  percentage of EdU-negative: 21.9 ± 0.6%
MCF7; [5]
  percentage of EdU-negative: 29.5 ± 1.3%
hTERT-HMEC; [4]
  percentage of EdU-negative: 6.07 ± 0.64%
hTERT-HMEC; [5]
  percentage of EdU-negative: 17.3 ± 0.43%

## Q9Y6N7
MCF7; [6]
  percentage of EdU-negative: 27 ± 0.88%
MCF7; protein concentration 0.225 µM
  percentage of EdU-negative: 25.6 ± 1.4%
hTERT-HMEC; [6]
  percentage of EdU-negative: 5.33 ± 0.86%
hTERT-HMEC; protein concentration 0.225 µM
  percentage of EdU-negative: 5.81 ± 0.72%

## MMPKHCFLGFLISFFLTGVAGTQSTHESLKPQRVQFQSRNFHNILQWQPGRALTGNSSVYFVQYKIMFSCSMKSSHQKPSGCWQHISCNFPGCRTLAKYGQRQWKNKEDCWGTQELSCDLTSETSDIQEPYYGRVRAASAGSYSEWSMTPRFTPWWETKIDPPVMNITQVNGSLLVILHAPNLPYRYQKEKNVSIEDYYELLYRVFIINNSLEKEQKVYEGAHRAVEIEALTPHSSYCVVAEIYQPMLDRRSQRSEERCVEIP [Q969J5]
MCF7; [6]
  percentage of EdU-negative: 24.1 ± 0.85%
MCF7; protein concentration 0.225 µM
  percentage of EdU-negative: 27.2 ± 3%
hTERT-HMEC; [6]
  percentage of EdU-negative: 4.89 ± 0.64%
hTERT-HMEC; protein concentration 0.225 µM
  percentage of EdU-negative: 5.48 ± 0.17%

## MRLLAKIICLMLWAICVAEDCNELPPRRNTEILTGSWSDQTYPEGTQAIYKCRPGYRSLGNVIMVCRKGEWVALNPLRKCQKRPCGHPGDTPFGTFTLTGGNVFEYGVKAVYTCNEGYQLLGEINYRECDTDGWTNDIPICEVVKCLPVTAPENGKIVSSAMEPDREYHFGQAVRFVCNSGYKIEGDEEMHCSDDGFWSKEKPKCVEISCKSPDVINGSPISQKIIYKENERFQYKCNMGYEYSERGDAVCTESGWRPLPSCEEKSCDNPYIPNGDYSPLRIKHRTGDEITYQCRNGFYPATRGNTAKCTSTGWIPAPRCTLKPCDYPDIKHGGLYHENMRRPYFPVAVGKYYSYYCDEHFETPSGSYWDHIHCTQDGWSPAVPCLRKCYFPYLENGYNQNYGRKFVQGKSIDVACHPGYALPKAQTTVTCMENGWSPTPRCIRVKTCSKSSIDIENGFISESQYTYALKEKAKYQCKLGYVTADGETSGSITCGKDGWSAQPTCIKSCDIPVFMNARTKNDFTWFKLNDTLDYECHDGYESNTGSTTGSIVCGYNGWSDLPICYERECELPKIDVHLVPDRKKDQYKVGEVLKFSCKPGFTIVGPNSVQCYHFGLSPDLPICKEQVQSCGPPPELLNGNVKEKTKEEYGHSEVVEYYCNPRFLMKGPNKIQCVDGEWTTLPVCIVEESTCGDIPELEHGWAQLSSPPYYYGDSVEFNCSESFTMIGHRSITCIHGVWTQLPQCVAIDKLKKCKSSNLIILEEHLKNKKEFDHNSNIRYRCRGKEGWIHTVCINGRWDPEVNCSMAQIQLCPPPPQIPNSHNMTTTLNYRDGEKVSVLCQENYLIQEGEEITCKDGRWQSIPLCVEKIPCSQPPQIEHGTINSSRSSQESYAHGTKLSYTCEGGFRISEENETTCYMGKWSSPPQCEGLPCKSPPEISHGVVAHMSDSYQYGEEVTYKCFEGFGIDGPAIAKCLGEKWSHPPSCIKTDCLSLPSFENAIPMGEKKDVYKAGEQVTYTCATYYKMDGASNVTCINSRWTGRPTCRDTSCVNPPTVQNAYIVSRQMSKYPSGERVRYQCRSPYEMFGDEEVMCLNGNWTEPPQCKDSTGKCGPPPPIDNGDITSFPLSVYAPASSVEYQCQNLYQLEGNKRITCRNGQWSEPPKCLHPCVISREIMENYNIALRWTAKQKLYSRTGESVEFVCKRGYRLSSRSHTLRTTCWDGKLEYPTCAKR
MCF7; [7]
  percentage of EdU-negative: 25.1 ± 0.8%
MCF7; protein concentration 0.055 µM
  percentage of EdU-negative: 25.5 ± 2.4%
hTERT-HMEC; [7]
  percentage of EdU-negative: 5.14 ± 0.38%
hTERT-HMEC; protein concentration 0.055 µM
  percentage of EdU-negative: 7.65 ± 0.92%
